Our source for the binding result and Kd values is paper PMC4980823 (Science (New York, N.Y.), 2016).

Where two headings read alike, the source gives them in different places.

B1: Rpn1 (412–625) (domain or fragment, yeast, UniProt P38764 412-625, looked up)
chain: GDGMTSAVASIGSIYQWNLDGLQQLDKYLYVDEPEVKAGALLGIGISASGVHDGEVEPALLLLQDYVTNPDTKISSAAILGLGIAFAGSKNDEVLGLLLPIAASTDLPIETAAMASLALAHVFVGTCNGDITTSIMDNFLERTAIELKTDWVRFLALALGILYMGQGEQVDDVLETISAIEHPMTSAIEVLVGSCAYTGTGDVLLIQDLLHRLT
B2: Rad23 UBL domain (amino acids 1–78) (domain or fragment, yeast, UniProt P32628 1-78, looked up)
chain: MVSLTFKNFKKEKVPLDLEPSNTILETKTKLAQSISCEESQIKLIYSGKVLQDSKTVSECGLKDGDQVVFMVSQKKST
B3: Rpn13 Pru domain (amino acids 1–150), no substitutions (domain or fragment, yeast, UniProt O13563 1-150, looked up)
chain: MSMSSTVIKFRAGVCEYNEDSRLCTPIPVQGEIEIKPNEEEELGFWDFEWRPTEKPVGRELDPISLILIPGETMWVPIKSSKSGRIFALVFSSNERYFFWLQEKNSGNLPLNELSAKDKEIYNKMIGVLNNSSESDEEESNDEKQKAQDV

The data set “dynamic light scattering” deals with the molecule itself. Nature of the data set: dynamic light scattering.
For data set [1], the target named is T1, ubiquitin (UniProt P0CG48 1-76). The data set can be described thus: NMR titration.
The target in the data set “Rpn1 (412–625)” is B1. Nature of the data set: ITC. (In ITC the heat of successive injections is recorded.)
Data set [2] deals with T1, ubiquitin. Nature of the data set: NMR titration. This is another data set of the same source.

Turning to B1, the binding result in “dynamic light scattering” and in the data set with ubiquitin [1] was “binds” each time. Consider B2, for which, in the data set with Rpn1 (412–625), binding was put at a Kd of 64 ± 25 nM. For B3, the binding result with ubiquitin [2] was “binds”.

By Kd is commonly meant the constant that tells how readily two partners part at equilibrium. Higher therefore signals weaker binding.
